Measured values from the supplement of paper PMC10724198.
± gives the standard deviation of the averaged measurements.

What follows are sequences tested on Saccharomyces cerevisiae (assay: protein stability index of tFT-peptide fusion (C-terminal peptide) (PSI (0-1 scale)); higher = more stable (slower turnover)). Settings: genetic background: wild type; temperature: 30 C.
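Further: PSI is a weighted mean of sequencing reads over stability bins, variants kept only with over 10 reads, mCherry proximal and sfGFP distal, peptide attached via GGGS linker.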

| Sequence | protein stability index |
| --- | --- |
| NTMVPPTGSGNA | 0.732 ± 0.13 |
| AGSLPLLYPSLR | 0.745 ± 0.015 |
| VGGAVGAVGGGG | 0.651 ± 0.02 |
| HPSPLHLPSPPP | 0.675 ± 0.0076 |
| GVTDRGIDCGIK | 0.658 ± 0.023 |
| YLFPFLCFSPPP | 0.702 ± 0.072 |
| PLFLCVISPFRL | 0.5805 ± 0.0018 |
| VGVRGGRFWAGA | 0.682 ± 0.018 |
| APSEPVIYLPRV | 0.746 ± 0.14 |
| HIAKQSSRRRRR | 0.68 ± 0.029 |
| VPFVGLGLKVRV | 0.6236 ± 0.0057 |
| GFETGLGKGAGW | 0.714 ± 0.019 |
| EKLKNTYLNRTE | 0.641 ± 0.023 |
| DNQQRQKKKNKK | 0.65 ± 0.013 |
| PPTLPPPSPLIL | 0.775 ± 0.11 |
| SRAARLPLFYFD | 0.675 ± 0.014 |
| DPLKSFDAVRQD | 0.617 ± 0.06 |
| KHGSKEAHKNEN | 0.695 ± 0.015 |
| PGRLVVGAGRED | 0.707 ± 0.036 |
| NLRVANLAQRTE | 0.703 ± 0.05 |
| VSGGGAPRSVWR | 0.706 ± 0.0083 |
| GVVGWTAGLRGG | 0.734 ± 0.045 |
| LLFPFSLHLSPP | 0.765 ± 0.066 |
| KKVGHGLRERGQ | 0.628 ± 0.061 |
| RTQRGRMGGEQG | 0.762 ± 0.12 |
| PRSLPSFHPPFH | 0.658 ± 0.074 |

| Sequence | protein stability index |
| --- | --- |
| PHPHLPAPTPRT | 0.702 ± 0.0079 |
| GEGVVRGDGVRG | 0.656 ± 0.041 |
| LRGVAIAARYPR | 0.766 ± 0.02 |
| SSPLTPAPLCSS | 0.702 ± 0.1 |
| CCCVGRGVGSRF | 0.703 ± 0.0054 |
| VCRGRGVEGIGW | 0.695 ± 0.12 |
| RPNQNAFACMSP | 0.702 ± 0.026 |
| LLIYIPLFEWAR | 0.526 ± 0.028 |
| CTLMPPQSRRPP | 0.604 ± 0.057 |
| FMYSGIVAIPRG | 0.661 ± 0.025 |
| AWLCSVFLLSLS | 0.533 ± 0.0076 |
| SSPYPGNVVTST | 0.7133 ± 0.0015 |
| ILTPPPLPDLLP | 0.706 ± 0.019 |
| SHRDNEKPILSA | 0.75 ± 0.015 |
| EFPRDLVFDWYG | 0.857 |
| PFPSPPSPRDAS | 0.688 ± 0.042 |
| SKLVSPGVPRTP | 0.78 ± 0.043 |
| RQSREGKANRRW | 0.742 ± 0.049 |
| TKHCRFCKSGFV | 0.7133 ± 0.0063 |
| WLGFHFLFLWKC | 0.587 ± 0.1 |
| PCIKHNSSLIGP | 0.701 ± 0.081 |
| LCPALLFLLARS | 0.5141 ± 0.0033 |
| NKDGIKKKKYNK | 0.668 ± 0.032 |
| SPYLGSALPPDR | 0.628 ± 0.07 |
| PPLLDASPAPIL | 0.689 ± 0.024 |
| PPPPLSPPPEPR | 0.659 ± 0.014 |

| Sequence | protein stability index |
| --- | --- |
| NIKEKRNKKKRR | 0.677 ± 0.073 |
| AAPAGAAKRWGT | 0.641 ± 0.035 |
| YDDSSLLFSNNL | 0.702 ± 0.0078 |
| ALPLPAPSSIPS | 0.712 ± 0.029 |
| AVGGGGRLMCGV | 0.645 ± 0.053 |
| GMRRGGGWCRGW | 0.674 ± 0.027 |
| ANSRPASSTRLR | 0.857 ± 0.2 |
| CDFASTDSLLGG | 0.702 ± 0.013 |
| GVGLGRVWVKLG | 0.708 ± 0.06 |
| APPFNPSRLSRP | 0.725 ± 0.066 |
| PPFLRSALRSSS | 0.672 ± 0.015 |
| LIDYGLDVSLSL | 0.703 ± 0.015 |
| SRVIFSQSLSVP | 0.654 ± 0.038 |
| FLLNPPSLPCYY | 0.727 ± 0.034 |
| GRWRIVSLEELQ | 0.724 ± 0.035 |
| APPPPHPRTPKP | 0.693 ± 0.069 |
| GELGIECREVVG | 0.704 ± 0.087 |
| WSRSGGWEKYGV | 0.681 ± 0.024 |
| REMDDRLEQSVP | 0.743 ± 0.017 |
| PRPPPPCPPPSL | 0.71 ± 0.083 |
| QPLSFAYMPPLS | 0.653 ± 0.033 |
| DIRVFFNSREGN | 0.742 ± 0.022 |
| RRPAQDAEPIQP | 0.661 ± 0.067 |
| VWRSAMIRVPPC | 0.608 ± 0.054 |
| RGVVGFVGVVRE | 0.6445 ± 0.0027 |
| PPTANLAHSSHP | 0.693 ± 0.014 |

| Sequence | protein stability index |
| --- | --- |
| FSGLFAFGRVVV | 0.687 ± 0.056 |
| VLRVWGCGEVGV | 0.69 ± 0.019 |
| SVGSSGFMLFCL | 0.741 ± 0.18 |
| SPCTSPARLKLP | 0.559 ± 0.063 |
| VLRPVSCTKLAA | 0.656 ± 0.083 |
| NFCSSGLPLLII | 0.648 ± 0.022 |
| PTSFPAPNLPPD | 0.669 ± 0.0045 |
| WGWGGHGIVRRE | 0.812 ± 0.14 |
| PSPPHPPPPSPY | 0.753 ± 0.097 |
| LTHLPSLCVRRI | 0.647 ± 0.06 |
| PCTGSKRRSLKS | 0.717 ± 0.055 |
| LVNVIPSHERAT | 0.656 ± 0.037 |
| GRRGRWCAGQWG | 0.6743 ± 0.0062 |
| AARQRWSLEFLD | 0.65 ± 0.1 |
| AKYPLTRCLFGS | 0.705 ± 0.033 |
| YTRAGNDKIFWE | 0.809 ± 0.0096 |
| KRIRTKLKKTQK | 0.695 ± 0.011 |
| LAALVGGNRGRG | 0.704 ± 0.081 |
| AGRGGTGIGERV | 0.63 ± 0.072 |
| EHKSPYGTLRFP | 0.777 ± 0.11 |
| APFAPRRPLPPP | 0.612 ± 0.094 |
| RRRPSPKASILS | 0.719 ± 0.011 |
| GLLGVRVVAGLG | 0.625 ± 0.032 |
| SSLSFHPLPLAP | 0.695 ± 0.03 |
| FVVSSLYSYSYR | 0.56 ± 0.015 |
| TPPLPLPSPPCP | 0.7249 ± 0.0035 |

| Sequence | protein stability index |
| --- | --- |
| VSVRLWSGQSAG | 0.672 ± 0.11 |
| KEQKNNRKVTKK | 0.715 ± 0.046 |
| SELKNKKRKHAK | 0.706 ± 0.034 |
| GSVGWRGGEGRW | 0.59 ± 0.11 |
| RAGCWFAGYSRV | 0.721 ± 0.078 |
| MALAVRVVGCGA | 0.594 ± 0.014 |
| LSLVDFSTLWFF | 0.611 ± 0.08 |
| RRGTEGLGGGVG | 0.6265 ± 0.0052 |
| VDASGYDEQSVH | 0.6622 ± 0.0018 |
| FGGGWGGGVVLV | 0.691 ± 0.0086 |
| GVVNSGVFGINS | 0.693 ± 0.054 |
| NKLYDESLALYP | 0.704 ± 0.044 |
| DQNRSTTVPRGY | 0.686 ± 0.075 |
| FPFLPPRSVSPP | 0.696 ± 0.12 |
| CFRFPILTSHFY | 0.592 ± 0.026 |
| DRLVGRVGGHGM | 0.755 ± 0.14 |
| TKRQKEKKKNKE | 0.735 ± 0.042 |
| MPCPFSSASRAI | 0.668 ± 0.036 |
| MPENGSTKSWWK | 0.696 ± 0.082 |
| VIQKHAMGDALL | 0.699 ± 0.03 |
| AWVVFGLRFGFD | 0.534 ± 0.053 |
| PLHPLPPAPFPP | 0.689 ± 0.01 |
| LHMVSCFLCSLW | 0.564 ± 0.018 |
| SLQGLLSIVNYR | 0.78 ± 0.15 |
| APPPPPPAPPLP | 0.591 ± 0.028 |
| VFYLNLLNQTRV | 0.629 ± 0.016 |

| Sequence | protein stability index |
| --- | --- |
| SGSTRTEDDGAR | 0.652 ± 0.038 |
| VRWISVGNGGVR | 0.725 ± 0.013 |
| RKGFMQRHDTLD | 0.6749 ± 0.0019 |
| GVWCDIVLPGVM | 0.704 ± 0.052 |
| PHPPPSSRLLSR | 0.751 ± 0.058 |
| SRCSAGVASGVL | 0.636 ± 0.0069 |
| PTLPTLFPSSSL | 0.7448 ± 0.0045 |
| PLALLPPPPHPP | 0.597 ± 0.07 |
| PPPCPHRDGTSP | 0.664 ± 0.05 |
| PPPPPALPSPPP | 0.631 ± 0.025 |
| PSRGPGRVAPCD | 0.641 ± 0.013 |
| LSHLILPPSSPS | 0.677 ± 0.013 |
| RAGVRWGGGGGG | 0.67 ± 0.014 |
| PPPLPSPPRPPS | 0.734 ± 0.045 |
| SWQSRISLRIST | 0.648 ± 0.041 |
| TSPSPPPTPCRS | 0.702 ± 0.018 |
| WAGLAQPKLVLH | 0.659 ± 0.024 |
| VSVGWWVGFWGV | 0.6968 ± 0.0051 |
| SFARPNTRALPT | 0.656 ± 0.13 |
| LPPPRPGLPFTF | 0.704 ± 0.057 |
| KKLKQTRRKKEN | 0.7296 ± 0.0068 |
| GSGSVWQGLGSG | 0.711 ± 0.032 |
| VRVEVVVFEGAG | 0.598 ± 0.034 |
| SLSSVAYAIIIL | 0.561 ± 0.021 |
| YGVFALFLSSLS | 0.576 ± 0.056 |
| LVGALISHSILR | 0.629 ± 0.019 |

| Sequence | protein stability index |
| --- | --- |
| LSAVHYNRAVFA | 0.5141 ± 0.0049 |
| ESKRKLHSSRYS | 0.6875 ± 0.0032 |
| PFEVPSSVISVP | 0.673 ± 0.13 |
| SRTPLASTPPHR | 0.761 ± 0.11 |
| FVFSIPPPPRPL | 0.59 ± 0.15 |
| ISIVKENSSLTC | 0.6552 ± 0.0053 |
| WFVVRGGLSPGG | 0.695 ± 0.038 |
| SGKKKVSAQRII | 0.6709 ± 0.0023 |
| VGGGGSLVVESG | 0.70581 ± 0.00064 |
| GNGIRLIPPAYS | 0.725 ± 0.028 |
| LSIFFCRCFSSF | 0.59 ± 0.021 |
| WGGGGGGGPAGV | 0.6659 ± 0.0021 |
| FSIRALGSLGVF | 0.693 ± 0.027 |
| PPPSPPHFTSPP | 0.683 ± 0.006 |
| RQSITIAQPGRP | 0.643 ± 0.014 |
| SSLSPGFPLPSS | 0.6989 ± 0.0014 |
| IFFFFHSPYFFS | 0.68 ± 0.018 |
| PPPPSPPLHRPP | 0.738 ± 0.016 |
| GLTGAATVPHSA | 0.732 ± 0.013 |
| DCGYPESTGTAF | 0.656 ± 0.036 |
| LPPLCLPPPAHP | 0.733 ± 0.026 |
| PRPPARPPLRLL | 0.719 ± 0.017 |
| PRAPRLQAPGPG | 0.75233 ± 0.00055 |
| GWGGSTLRGVRR | 0.719 ± 0.03 |
| LHPPTHPQLPSS | 0.7214 ± 0.0059 |
| TTPTAPCLSSHD | 0.69 ± 0.042 |

| Sequence | protein stability index |
| --- | --- |
| SLKPHTCPPRPA | 0.57 ± 0.15 |
| PSPAAPSPPCLP | 0.64 ± 0.045 |
| RASPTTILCKRQ | 0.678 ± 0.025 |
| PLSLLVHPLPPS | 0.679 ± 0.011 |
| PRALCPSSPPSR | 0.764 ± 0.12 |
| ALVQAAPPGRTP | 0.6864 ± 0.0049 |
| PADPRSSPPVQQ | 0.691 ± 0.02 |
| DRSRLWSHPCPG | 0.647 ± 0.0098 |
| GGVRRSPRAILR | 0.705 ± 0.014 |
| PPIPNPPPHPLP | 0.657 ± 0.057 |
| RMKKKKNKARDI | 0.729 ± 0.045 |
| FLTPPIPLFSRL | 0.783 ± 0.058 |
| IKRLNNEKSSKA | 0.676 ± 0.035 |
| IDSSLERVRQHS | 0.677 ± 0.058 |
| LGDLVFGLSVWL | 0.684 ± 0.035 |
| SARWTSRIQDRS | 0.652 ± 0.02 |
| RERNNISVKGKL | 0.679 ± 0.049 |
| RSHPRQSGLRTA | 0.652 ± 0.039 |
| PPSPPDPLLCSP | 0.7017 ± 0.0043 |
| LVGRVGAVAGPA | 0.691 ± 0.028 |
